Results published in patent CN1709911A.

What was measured:
[1] = molecular target: Raji肿瘤细胞核抗原 (Raji肿瘤细胞核提取物 / 固定Raji细胞); assay: flow cytometry on paraformaldehyde-fixed Raji cells; 5 ul of 1 mg/ml, anti-human IgG-FITC; third of three values
[2] = molecular target: Raji肿瘤细胞核抗原 (Raji肿瘤细胞核提取物 / 固定Raji细胞); assay: flow cytometry on paraformaldehyde-fixed Raji cells; 5 ul of 1 mg/ml, anti-human IgG-FITC; first of three values
[3] = molecular target: Raji肿瘤细胞核抗原 (Raji肿瘤细胞核提取物 / 固定Raji细胞); assay: flow cytometry on paraformaldehyde-fixed Raji cells; 5 ul of 1 mg/ml, anti-human IgG-FITC; second of three values
[4] = molecular target: Raji肿瘤细胞核抗原 (Raji肿瘤细胞核提取物 / 固定Raji细胞); assay: antigen binding activity, table 2; this molecule is the reference; method not described
[5] = molecular target: Raji肿瘤细胞核抗原 (Raji肿瘤细胞核提取物 / 固定Raji细胞); assay: antigen binding activity, table 2, against rhTNT-IL2 (IgG1) as control; method not described

| 融合蛋白抗原结合活性 [5] | Substance | further results |
| --- | --- | --- |
| – | rhTNT-IL2融合蛋白 (重组人肿瘤坏死治疗单抗-白细胞介素2融合蛋白, IgG1, 连接肽AAAGGGS, 全长IL2) (antibody) | 特异结合活性 [1]: 98.6%; 特异结合活性 [2]: 98.2%; 特异结合活性 [3]: 98.3%; 融合蛋白抗原结合活性 [4]: 100% |
| 100% | 肿瘤坏死治疗单抗-白细胞介素2融合蛋白, IgG3重链恒定区, IL2(Q22-C58) (antibody) | – |
| 100% | 肿瘤坏死治疗单抗-白细胞介素2融合蛋白, IgG2重链恒定区, 全长IL2 (antibody) | – |
| 100% | 肿瘤坏死治疗单抗-白细胞介素2融合蛋白, IgG3重链恒定区, 全长IL2 (antibody) | – |
| 100% | 肿瘤坏死治疗单抗-白细胞介素2融合蛋白, IgG1重链恒定区, IL2(Q22-C58) (antibody) | – |
| 100% | 肿瘤坏死治疗单抗-白细胞介素2融合蛋白, IgG4重链恒定区, IL2(Q22-C58) (antibody) | – |
| 100% | 肿瘤坏死治疗单抗-白细胞介素2融合蛋白, IgG2重链恒定区, IL2(Q22-C58) (antibody) | – |
| 100% | 肿瘤坏死治疗单抗-白细胞介素2融合蛋白, IgG4重链恒定区, 全长IL2 (antibody) | – |
